Article doi:10.1101/626572

Target: Concanavalin A (Con A) (UniProt P02866;P02866 164-281;30-148)
Assay: particle-based flow cytometry

Concanavalin A (Con A), sequence (P02866 164-281, chain 1 of 2): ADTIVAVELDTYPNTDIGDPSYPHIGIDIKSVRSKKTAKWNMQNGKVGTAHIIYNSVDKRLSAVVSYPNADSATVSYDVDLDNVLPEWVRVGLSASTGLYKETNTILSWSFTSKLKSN
Concanavalin A (Con A), sequence (P02866 30-148, chain 2 of 2): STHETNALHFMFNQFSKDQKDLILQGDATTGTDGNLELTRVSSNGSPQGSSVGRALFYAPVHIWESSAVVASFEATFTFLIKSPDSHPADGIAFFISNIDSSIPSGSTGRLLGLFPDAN

B1: ConA-3-1n (ssDNA)
DNA: GATCCCAGTCCGAAGTAATCGTTGCATCTGCACGACTGGTGAGCTTGAGTGGCAGAAGAACTTGTGCAAACGGCTATAGG
  binding result: no binding
